Data on one variant can be found in IntAct's records for PubMed 22495310.

B1: CREB-regulated transcription coactivator 2 (Mus musculus), Q3U182 (parent)
chain: MATSGANGPGSATASASNPRKFSEKIALQKQRQAEETAAFEEVMMDIGSTRLQAQKLRLAYTRSSHYGGSLPNVNQIGCGLAEFQSPLHSPLDSSRSTRHHGLVERVQRDARRMVSPLRRYPRHIDSSPYSPAYLSPPPESGWRRMMPWGNLPAEKGQLFRLPSALNRTSSDSALHTSVMNPNPQDTYPGPTPPSVLPSRRGGGFLDGEMDAKVPAIEENVVDDKHLLKPWDAKKLSSSSSRPRSCEVPGINIFPSPDQPANVPVLPPAMNTGGSLPDLTNLHFPPPLPTPLDPEETVYPSLSGGNSTTNLTHTMTHLGISGGLGLGPSYDVPGLHSPLSHPSLQSSLSNPNLQASLSSPQPQLQGSHSHPSLPASSLAHHALPTTSLGHPSLSAPALSSSSSSSSTSSPVLSAPPYPASTPGASPRHRRVPLSPLSLPAGPADARRSQQQLPKQFSPTMSPTLSSITQGVPLDTSKLPTDQRLPPYPYSPPSLVIPTHPPTPKSLQQLPSQACLVQPSGGQPPGRQPHYGALYPPGSSGHGQQPYHRPINDFSLGNLEQFNMESPSTSLVLDPPAFSEGPGFLGSEGSMSGPQDPHVLNHQNLTHCSRHGSGPNIILTGDSSPGFSKEIAAALAGVPGFEVSASGLELGLGLEDELRMEPLGLEGLTMLSDPCALLPDPAVEDSFRSDRLQ

The variants in the assay derive from B1. To be noted: with pp2ba_mouse Ppp3ca.
Consider P614G;I616A;L618A;T619A, for which the “effect of a mutation on the interaction” value is reported as “decreasing interaction strength”.
